Molecular target: G-actin, P68135
Experiment: size exclusion chromatography
Details: chain shown with the change

B1: MRTF-A(67–199) L74A; L78A; S98D (protein)
chain: LSERKNVAQLKAQQRRTREELVSQGIMPPLKDPAAFHEQRRSLERARTEDYLKRKIRSRPERAELVRMHILEETSAEPSLQAKQLKLKRARLADDLNEKIAQRPGPMELVEKNILPVESSLKEAIIVGQVNYP
- other: actins (apparent stoichiometry of G-actin binding): 2.3

Source: PMC4963197, “Phosphorylation acts positively and negatively to regulate MRTF-A subcellular localisation and activity” (eLife, 2016)
